Reference: paper PMC5053157, “Crystal structure of yeast monothiol glutaredoxin Grx6 in complex with a glutathione-coordinated [2Fe–2S] cluster” (Acta Crystallographica. Section F, Structural Biology …, 2016)
Values joined by “and” are separate entries in the source; they are usually repeats but may differ in a detail not shown here. Equal values may be shown once.

Molecular target: the molecule itself
Assay: SEC; HiLoad 16/60 Superdex 75; 20 mM NaCl, 50 mM Tris-HCl pH 8.0, 2 mM EDTA, 10 mM GSH; apparent molecular masses

B1: Saccharomyces cerevisiae glutaredoxin Grx6 without the signal peptide (residues Lys37-Asn231) (enzyme)
chain: KEETSKAFSTNMDNMAGGSSREYAAMPTSTTNKGSSEVDEEINEIKQKVGLQQPIASVDDSLSAIKNDKGSRITKAFNVQKEYSLILDLSPIIIFSKSTCSYSKGMKELLENEYQFIPNYYIIELDKHGHGEELQEYIKLVTGRGTVPNLLVNGVSRGGNEEIKKLHTQGKLLESLQVWSDGKFSVEQREKPSNNLEHHHHHH
In the case of B1, the “stoichiometry N” value is reported as 2 and 4.
